Laboratory results as given in the supplement of paper PMC9170038.

Tested on: MS2 coat protein
Experiment: apparent KD of MS2 coat protein; designed switch direction (-1 OFF switch, 1 ON switch): -1; higher = weaker reporter binding
Procedure, shortened: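 For each design, the apparent KD is the median over clusters of curves fitted to normalised cluster fluorescence. Clusters held RNA switches with common flanks, transcribed on Illumina chips by stalled E. coli RNA polymerase. These were titrated with SNAP-549-labelled MS2 coat protein, doubling from 0.7 or 1.5 nM to 3 µM, without input, with 200 uM small-molecule ligand, or with an oligonucleotide input.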

[1] = input ligand: microRNA oligo, concentration not stated
[2] = Eterna round: R95, input ligand: FMN 200 uM
[3] = Eterna round: R95, input ligand: microRNA oligo, concentration not stated
[4] = Eterna round: R95, input ligand: none

| Sequence | apparent KD of MS2 coat protein (input ligand: FMN 200 uM) [nM] | apparent KD of MS2 coat protein [1] [nM] | apparent KD of MS2 coat protein (input ligand: none) [nM] | apparent KD of MS2 coat protein [2] [nM] | apparent KD of MS2 coat protein [3] [nM] | apparent KD of MS2 coat protein [4] [nM] |
| --- | --- | --- | --- | --- | --- | --- |
| GCACGGAUGGUAGGAUAUCUGUGCGAUUAGCUCAGAGAAGGACCACAUGAGGAUCACCCAUGUACCUCAAUUAGCCUUCCGUGC [Eli exng1 - 019] (Eterna round: R96, puzzle: Exclusion NG 1) | 14.8 | 11.3 | 15.2 |  |  |  |
| GGUACUAACACGAAAGUGUUAGUACUGUAGGUUUGUGUUACAUGAGGAUCACCCAUGUCCUCAUAAGCUCGUCUUGU [JL-sv3-2.22 mat747 mod] (puzzle: Sensor v3, turn-off variant 2) |  |  |  | 306 | 246 | 347 |
| AGGUCAUUAGGAUAUGUCGAAUAUGACAUGAGGAUCACCCAUGUGGUAGGCAUGUCGUAGACAGAAGGAGUGUAAA [Laqureis] (Eterna round: R97, puzzle: Exclusion 5) | 219 |  | 75.9 |  |  |  |
| CGAGAGCGAGGAUAUACACAACUCCUCACUGUCAAGAAAGGACAUGAGGAUCACCCAUGUAGAAGGUGCAAAAC [Quries] (puzzle: Exclusion 2) |  |  |  | 215 | 125 | 120 |
| CUCGGACAUGAGGAUCACCCAUGUGAGGAUAUGAUGCGAUCGUCGAAAGACGAUAGCAUCAGAAGGUACAAAUG [Fiskers Ex 1 - 22] (puzzle: Exclusion 1) |  |  |  |  | 55.6 |  |
| UAAUAAAGUGUGAGGAUAUGCUGGUCCUUAGAUCAGCAGAAGGCACAUGAGGAUCACCCAUGUAAUAUAUAAAU [Mat - Exclusion 4 - JL Mod - D56] (puzzle: Brourd's mod of Exclusion 4) |  |  |  | 245 | 22.8 | 30.3 |
| CUUUUGUGAGGAUAUCAGUAGUAAUACAAUAGUAUUACUACUGAGAAGGUACAUGAGGAUCACCCAUGUUCCUC [Ex4 344 Omei mod 4] (puzzle: Exclusion 4) |  |  |  |  | 17.9 |  |
| UAUUAAACAAGCAGGUCCCACAUGAGGAUCACCCAUGUGCUCGUCUUAUAAGGUACUGUGAUGAAAGUUACGGUACC [Elimod 17 - Jieux - Sensor, turn-off variant 1] (Eterna round: R97, puzzle: Sensor, turn-off variant 1) | 36.4 |  | 46.2 |  |  |  |
| AAUAGUCGGUAGGAUAUCCACGGAUGACCGGCAGGAGAAGGGCCGACUUGAGGAUCACCCAAGUAUGGUCCUAA [Texeonxe] (Eterna round: R97, puzzle: Exclusion 6) | 15.9 |  | 14.5 |  |  |  |
| AAGAGGAUUAUAGGAUAUGAAGCUAAAACGGCGUUAGAAGGGUAUACAGAGUUACAUGAGGAUCACCCAUGUUGUGAUUUCUAA [AK ExNG1-V2-4.3] (Eterna round: R96, puzzle: Exclusion NG 1) | 52.6 | 36.9 | 62.5 |  |  |  |
| AAUAACAAGCCGAUCCUUCACAUGAGGAUCACCCAUGUGCUCGUCUUGUAAAGUACUAUCACGAAAGUGAUAGUACA (Eterna round: R97, puzzle: Sensor, turn-off variant 1) | 22.6 |  | 19.9 |  |  |  |
| AUGUCGGCAGGAUAUACAUGAGGAUCACCCAUGUAAAUUUUUCGUUUAACUUGAAUGUGUAGAAGGGCCAUGAA [Ex3 #68] (Eterna round: R97, puzzle: Exclusion 3) | 30.9 |  | 33 |  |  |  |
| AAAACGGUUCUCGUGAGGUACAUGAGGAUCACCCAUGUGAGUCAGGAUAUCCCGUCCAAGUGCGAGGAGAAGGGACGCACUUGG [Esesence] (Eterna round: R96, puzzle: Exclusion NG 3) | 190 | 103 | 110 |  |  |  |
| GGUUGGCGAGGAUAUACAUGAGGAUCACCCAUGUGAGAGAAAAAAGUGAGGAAGAAAAGUAGAAGGCGCUGACA [salish99_ex3_r3_046] (puzzle: Exclusion 3) |  |  |  | 188 | 43.9 | 54.1 |
| AGUAGAUCUACGCUUGCGUGGAUCUGCAAUGCAGGUGUUACAUGAGGAUCACCCAUGUCCUCGUUUGCUCGUCUUAG [JL turnoff v2 99.11] (puzzle: Sensor v3, turn-off variant 2) |  |  |  | 145 | 508 | 133 |
| GUUAAUUGUGACAUGGGUGACAUGAGGAUCACCCAUGUCACAAGCUUUUUGCUCGUCUUAUAAUUAACCCAUGUCAC [Stov1/13-A2] (Eterna round: R97, puzzle: Sensor, turn-off variant 1) | 29.1 |  | 41.2 |  |  |  |
| AAAAUGGUCUAGGAUAUGACAAAUCUGAUCACGUCAGAAGGAGACACAUGAGGAUCACCCAUGUGGGUGCGAAA [Qureenan] (puzzle: Exclusion 6) |  |  |  | 130 | 44.4 | 39.5 |

| Sequence | apparent KD of MS2 coat protein (input ligand: FMN 200 uM) [nM] | apparent KD of MS2 coat protein [1] [nM] | apparent KD of MS2 coat protein (input ligand: none) [nM] | apparent KD of MS2 coat protein [2] [nM] | apparent KD of MS2 coat protein [3] [nM] | apparent KD of MS2 coat protein [4] [nM] |
| --- | --- | --- | --- | --- | --- | --- |
| AGUAGAUCUACGCUUGCGUGGAUCUGCGAGGCAGGUGUAACAUGAGGAUCACCCAUGUCCUCAUUUGUUCGUCUUAU [JL turnoff v2 99.19] (puzzle: Sensor v3, turn-off variant 2) |  |  |  | 379 | 377 | 477 |
| AAUAAUAAUGUGAGGAUAUCUAGAGCUUCGGCUCUAGAGAAGGCACAUGAGGAUCACCCAUGUCUCAAUAAUAA [BmEx4/2-E4] (Eterna round: R97, puzzle: Brourd's mod of Exclusion 4) | 263 |  | 53.4 |  |  |  |
| CAACUGUGAGGAUAUGGUGAGUAGUGCCUGAGCGCUGCUCACCAGAAGGCACAUGAGGAUCACCCAUGUAUAAC [Mat - Exclusion 4 - Mod of JL - D4] (puzzle: Exclusion 4) |  |  |  |  | 35.6 |  |
| UAAUAUCUGUAGGAUAUCAGUGGAGAACACGUAUGAGAAGGGCAGACAUGAGGAUCACCCAUGUAUAGGGUCCG [BotMod 6 - Jieux - Exclusion 6] (Eterna round: R97, puzzle: Exclusion 6) | 59.1 |  | 20.2 |  |  |  |
| GUUUUACAUGAGGAUCACCCAUGUGAGGAUAUAUUAUUAAUAGUGAUAAUUAUUGGUGGUAGAAGGCGCGUGAU [JR_Exc1_Sub012] (Eterna round: R97, puzzle: Exclusion 1) | 50.9 |  | 53.1 |  |  |  |
| CAGGUGUUAGGAUAUCGGAGGUUGAGGCAGACGGGAAUAUUCGAGAAGGAACAUGAGGAUCACCCAUGUAGUAG [JR_Exclu4_Sub037] (puzzle: Exclusion 4) |  |  |  |  | 21.5 |  |
| GAGGCCAUAGGAUAUCUGUUACGGGACAUGAGGAUCACCCAUGUACUGGCAAGUCCUCGGAGAGAAGGAUGACUCU [Eternabot (L1) Solution 68] (Eterna round: R97, puzzle: Exclusion 5) | 21.9 |  | 18.3 |  |  |  |
| AGGUAACAUGAGGAUCACCCAUGUCAGGAUAUCAUGAAGAGUAGAUUAGAGGAGAGGUUGAGAAGGGACUAUAU [Excluse me! 15 - Jieux - Exclusion 1] (puzzle: Exclusion 1) |  |  |  |  | 38.5 |  |
| GACUAGUGAGGAUAUACUUGCAGUGUACCUCGGGUGAUCUCACUUGAGGAUCACCCAAGUAGAAGGCGCGAGGG [EX2 #23] (Eterna round: R97, puzzle: Exclusion 2) | 13.1 |  | 18.3 |  |  |  |
| AGAAGUAGUAACCGAUCCUACAUGAGGAUCACCCAUGUAGCCAGACGUGCACGCGAAGCUCGUCAGACUACCAGAUG [salish99_TOv1_r3_026] (puzzle: Sensor v3, turn-off variant 1) |  |  |  | 618 | 447 | 398 |
| UUUGUUUAUGUAGGAUAUGCCUGGCGUGCCUUUGCAGAAGGACAUGAGGAUCACCCAUGUAACAUGAGGCUCACCCAUGUCGCU [salish99_ExNG1_r04_111] (Eterna round: R96, puzzle: Exclusion NG 1) | 240 | 180 | 292 |  |  |  |
| GUAUAACUACACGGGCUCAACAUGAGGAUCACCCAUGUCUUAUACGCAAGCUUUUUGCUUGUCUUAUCUGUCCGUGA [Tibimaesan] (puzzle: Sensor v3, turn-off variant 1) |  |  |  | 12.6 | 11.9 | 12.3 |
| CUGAGCUGAGGAUAUACAUGAGGAUCACCCAUGUAAAGCAGCUUGCGUACAGGCAGAUGUAGAAGGCAGUUCGG [Mod of JL 16 - Jieux - Exclusion 3] (Eterna round: R97, puzzle: Exclusion 3) | 37.4 |  | 18.1 |  |  |  |
| GGGCCCGGAGGAUAUACAAUGGGCCCGGGAAAUUGGGCCCUACAUGAGGAUCACCCAUGUAGAAGGCCGGGCCC [-40.2, -38.1 kcal A 24%, 5c,0] (Eterna round: R97, puzzle: Exclusion 2) | 16.1 |  | 12.5 |  |  |  |
| GAUUGACAUGAGGAUCACCCAUGUGAGGAUAUCGGCUGGACCGUGUUGGCUUGCUUCUCGAGAAGGCGCAUAGG [Exclusion 1 V51] (puzzle: Exclusion 1) |  |  |  | 32.7 | 33.9 | 36 |
| UUUAAUUUUUUUUUUUUACAAGCUUUUUGCUCGUCUUAUACAUGAGGAUCACCCAUGUAAAUGGAGGGUAAAUUAUC [JMF 83] (puzzle: Sensor v3, turn-off variant 2) |  |  |  | 14.8 | 32 | 11.1 |
| GGUGGGCUAGGAUAUGCUUUGGGCAGGCAUUCCUUCGAUAAACUUGAGGAUCACCCAAGUAGAAGGAGCUUGCC [salish99_ex2_r4_025] (Eterna round: R97, puzzle: Exclusion 2) | 10.8 |  | 10.7 |  |  |  |
